Patent US20140335050A1, “METHODS, COMPOSITIONS, AND KITS FOR THE TREATMENT OF CANCER” (The General Hospital Corporation, priority 2011, published 2014)

Tests used:
Format in all cases: cell-based, human
[1] = system: Melan-A/MART-1 promoter EGFP reporter cell line; experiment: Melan-A/MART-1 promoter-driven EGFP reporter cell line, secondary screen of hits (FIG. 6); conditions: over a dose range (FIG. 6)
Excerpt: FIG. 6 is a series of graphs showing EGFP detection of in cells treated with the indicated hits showing ability to upregulate a cell line containing a Melan-A/MART-1 promoter-driven EGFP reporter. Note that the x-axes (drug concentrations) and y-axes (EGFP fluorescent measurement) cover different ranges to best indicate the activities of individual compounds. Data from a single determination, representative of at least three confirmatory experiments, is shown.
The EGFP reporter driven by the Melan-A/MART-1 promoter represents one such orthogonal assay because it evaluates directly the effect of the compounds on Melan-A/MART-1 promoter activity independent of Melan-A/MART-1 protein expression. Compounds passing the other secondary screens, but failing this one, may affect antigen presentation by other mechanisms such as increasing the efficiency of antigen processing, enhancing MHC Class I levels, or by stabilizing the antigen/MHC complex.
As for the primary screen, 17-AAG and aphidicolin, had the largest impact on EGFP stimulation, inducing 3-fold and 5-fold increases respectively. […]
(§1) Cells were fixed with 1% formaldehyde, permeabilized with 0.1% saponin, stained with monoclonal antibodies to melanocyte antigens. […] The level of EGFP was determined by flow cytometry of unfixed cells that were washed and resuspended in 1×PBS.

MU89 melanoma cells = experiment: Tumor cell/T cell co-culture IL-2 ELISA (Melan-A/MART-1 specific TCR Jurkat line J-TCR-M1 as responder)
Excerpt: The assay relies on the use of an antigen-specific responder T cell line. […] The chosen TCR reacts specifically to a Melan-A/MART-1 decapeptide (26[…]35) presented by HLA-A2, with appropriate triggering of T cell activation. We then used a lentiviral vector system for transduction of this specific TCR into the J.RT3-T3.5 T cell line, a Jurkat cell derivative which fails to express endogenous surface TCR through a mutation in its beta chain.
We evaluated several candidate melanoma cell lines for the ability to stimulate the J-TCR-M1 cell line. Levels of Melan-A/MART-1 (determined by intracellular staining and flow cytometry) and corresponding levels of induced IL-2 (determined by coculture with J-TCR-M1 and IL-2 ELISA) were tested for different melanoma cell lines.
The 480 compounds were tested in six parallel 96 well plates. The first two columns (16 wells) of each plate were used for standards (8 wells), untreated controls (4 wells), and positive controls (4 wells). The other ten columns (80 wells) were used for testing compounds in separate wells. A100 μl aliquot containing 5×10^4 MU89 cells was added to wells that contained 0.1 μl of each test drug diluted in 50 μl of RPMI media. The plates were incubated with drug for 72 hours at 37° C. in a humidified incubator with 5% CO2. After 72 hours, each well received 2.5×10^4J-TCR-M1 cells in 50 μl medium, and then incubated a further 24 hours. At the conclusion of the 24 hour co-culture period, each plate was centrifuged to pellet the cells and 100 μl supernatant fluid was collected from each well and plated in a parallel 96 well flat bottom well for IL-2 ELISA assay.
Melanoma cells were treated with hits from the primary screen for three days prior to counting and plating for the coculture assay (cells were washed and resuspended in fresh medium that no longer contained the treatment agents during the co-culture). A100 μl volume of 5×10^5 cells/ml tumor cells were mixed with 50 μl of […] T cells in a 96-well V-bottom plate and incubated overnight (16-24 hours). Plates were centrifuged to pellet the cells and 100 μl of supernatant fluid was removed from each well for cytokine assay. To assess antigen-specific T cell responses, a final concentration of 3.33 μg/ml Melan-A/MART-1 peptide (26[…]35 (A27L from wild type)) was added to the co-culture.
The protocol for evaluation of the cytokine IL-2 was performed using a the BD OptEAI kit, human IL-2 ELISA set from BD Biosciences (San Diego, Calif.) following the manufacturer's recommendations. The absorbance 450 nm was read in a BioRad 3550 plate reader. A standard curve using known concentrations of IL-2 (from 500 to 8 pg/ml) was included in each ELISA plate. IL-2 levels for experimental samples (pg/ml) were calculated from the standard curve.
100 μl of 5×10^5 tumor cells/ml were mixed with 50 μl of T cells (at 5×10^5 cells/ml) in a 96-well V-bottom plate and incubated overnight (16-24 hours). Plates were centrifuged to pellet the cells and 120 μl of supernatant fluid was removed from each well for cytokine assay. To assess antigen-specific T cell responses, 3.33 μg/ml Melan-A/MART-1 peptide was added to the co-culture.
The protocols for evaluation of either IL-2 or IFN-gamma were similar, following the manufacturer's recommendations. A standard curve using known concentrations of each cytokine was included in each ELISA experiment. ELISA plates were coated with capture antibody and then washed with 1×PBS 0.5% Tween-20. Wells were blocked with 1×PBS 1% FBS for 1 hour and rewashed.

melanomas and gliomas = experiment: Intracellular staining for Melan-A/MART-1 and gp100, melanomas and gliomas exposed to hits (Table 10); conditions: in most cell lines; three days (Table 10)
Description: FIG. 7 is a series of graphs showing intracellular staining and flow histograms used to generate data for Table 10. All cells were stained with an antibody to gp100. Thin line represents untreated cells, bold line represents cells treated for three days with 17-AAG (1 μg/ml). Numbers represent geometric mean of flow histograms.
A further orthogonal secondary screen is the measurement of Melan-A/MART-1 and gp100 in additional melanoma cell lines and gliomas in response to the primary hit candidates. […] If the compounds of interest increase antigen levels in multiple melanoma cell lines and two gliomas, the effects of the compounds are clearly not limited to a single melanoma cell type.
As for the primary screen, 17-AAG and aphidicolin, had the largest impact on EGFP stimulation, inducing 3-fold and 5-fold increases respectively. Four additional compounds: damnacanthal, flunarizine, OBAA, and dantrolene stimulated EGFP more than 2-fold. We then tested the ability of the hit compounds to induce antigen increases in a more diverse set of tumors including melanomas and gliomas. […]
as §1

MU89 melanoma cell line = experiment: Antibody staining and flow cytometry (intracellular Melan-A/MART-1, gp100, TRP-2; surface MHC Class I/II)
Description: (§2) Cells were fixed with 1% formaldehyde, permeabilized with 0.1% saponin, stained with monoclonal antibodies to melanocyte antigens. Antibodies were obtained with specificity for: MART-1 from Vector Labs (Burlingame, Calif.); gp100 HMB45 from DakoCytomation (Carpinteria, Calif.) and then visualized with goat anti-mouse FITC-conjugated secondary antibody from Invitrogen (Fredrick, Md.). The level of EGFP was determined by flow cytometry of unfixed cells that were washed and resuspended in 1×PBS.
(§3) Cells were plated at a density of 1×10^5 in 1 ml of medium in a 24-well plate and cultured for varying times as indicated in results. […] After incubation, cells were collected by trypsinization and then evaluated by flow cytometry.
(§4) Intracellular staining and flow cytometric analyses of cytoplasmic Melan-A/MART-1, and gp100 expression were performed as described previously. Cells were fixed with 1% formaldehyde, permeabilized with 0.1% saponin, stained with monoclonal antibodies to melanocyte antigens. Antibodies were obtained with specificity for: Melan-A/MART-1 from Vector Labs (Burlingame, Calif.); gp100/HMB45 from DakoCytomation (Carpinteria, Calif.) and then visualized with goat anti-mouse FITC-conjugated secondary antibody from Invitrogen (Frederick, Md.). The level of EGFP was determined by flow cytometry of unfixed cells washed and resuspended in 1×PBS. Surface staining of MHC Class I was carried out using the antibody W6/32 on cells harvested with Cell Stripper from MediaTech Inc. (Manassas, Va.) and carried out on ice.
(§5) Cell were seeded at 1×10^6 cells in a T25 flask with 10 ml of media for the 4 day IFN-beta pre-treatments. Cells were then harvested and plated in 24 well plate at 1×10^5 cells per well in 1 ml of media for 3 day treatments.
(§6) For surface staining of HLA Class I and II antigens, cells were harvested using CellStripper™ from Mediatech (Manassas, Va.). All staining steps were performed on ice. Following a first incubation with antibody to Class I (W6/32) or Class II (L243) for 30 minutes. Stained cells were washed twice with cold PBS and then stained with a goat anti-mouse FITC secondary antibody to allow for quantitative analysis by flow cytometry. For evaluation of cytoplasmic antigens, including Melan-A/MART-1 and gp100, cells were first fixed in paraformaldehyde and permeabilized with saponin as previously described. Staining for cytoplasmic antigens was carried out at room temperature (22° C.).

[2] = system: MCF-7 breast cancer cells; experiment: Surface antibody staining and flow cytometry (MHC Class I/II); conditions: MCF-7; single agent
Description: as §4, §5, §6

U2-OS osteosarcoma cells = experiment: as above; conditions: U2-OS
Description: as §4, §5, §6

[3] = system: HeLa cervical carcinoma cells; experiment: as above
Description: as §4, §5, §6

[4] = system: Raji B cell lymphoma cells; experiment: as above
Description: as §4, §5, §6

[5] = system: EBV-19 B cell lymphoma cells; experiment: as above; conditions: three days, IFN-β 5000 Units/ml, IFN-γ 100 ng/ml
Description: as §4, §6

[6] = system: Jurkat T cell lymphoma cells; experiment: as above
Description: as §4, §6

[7] = system: U-118 MG glioma cell line; experiment: Antibody staining and flow cytometry (intracellular gp100; surface MHC Class I/II)
Description: as §2, §3, §4, §5, §6

tumor cell lines = experiment: MHC Class I and Class II surface staining, statements over a panel of tumor cell lines; conditions: HeLa, MCF-7, U2-OS, MU-89, U118, Jurkat, Raji (Table 19)
Description: as §6

[8] = MU89, three days, IFN-β 5000 Units/ml, IFN-γ 100 ng/ml, PU-H71 0.3 mg/ml
[9] = three days, IFN-β 5000 Units/ml, IFN-γ 100 ng/ml, PU-H71 0.3 mg/ml

C[C@@]1(CO)[C@H](O)CC[C@@]2(C)[C@H]1CC[C@H]1C[C@@H]3C[C@@]12CC[C@]3(O)CO [Aphidicolin]
EGFP stimulation (Melan-A/MART-1 promoter reporter) [1]: 5 fold | Fold increase (IL-2 relative to untreated controls), hits from pilot screen (MU89 melanoma cells; about 10 μM, 72 hours treatment, then 24 hours co-culture): 2.0 fold | IL-2 stimulation in repeat of the tumor T cell co-culture IL-2 ELISA (MU89 melanoma cells; hits re-tested over a wider dose range (FIG. 5)): ~5 fold | Protein increase (Melan-A/MART-1, gp100 intracellular staining) (melanomas and gliomas): inducing high levels of protein increases at low concentrations

B1: IFN-γ: IFN-γ-1b stock solution 100 μg/ml in PBS; SEQ ID NO: 5 (protein)
chain: MQDPYVKEAENLKKYFNAGHSDVADNGTLFLGILKNWKEESDRKIMQSQIVSFYFKLFKNFKDDQSIQKSVETIKEDMNVKFFNSNKKKRDDFEKLTNYSVTDLNVQRKAIHELIQVMAELPPAAETGKRKRSQMLFRGR
modifications: IFN-gamma-1b
MHC Class I, geometric mean of surface staining (W6/32) (MU89 melanoma cell line; [8]): 213 | MHC Class II, geometric mean of surface staining (L2443) (MU89 melanoma cell line; [8]): 139 | L243 (MHC Class II surface staining) (MU89 melanoma cell line; MU-89, single agent): 57.6 | W6/32 (MHC Class I surface staining) (MU89 melanoma cell line; MU-89, single agent): 138.0 | L243 (MHC Class II surface staining) [2]: 59.1 | W6/32 (MHC Class I surface staining) [2]: 478.5 | L243 (MHC Class II surface staining) (U2-OS osteosarcoma cells; single agent): 87.6 | W6/32 (MHC Class I surface staining) (U2-OS osteosarcoma cells; single agent): 293.2 | MHC Class I, geometric mean of surface staining (W6/32) (U2-OS osteosarcoma cells; [9]): 284 | MHC Class II, geometric mean of surface staining (L2443) (U2-OS osteosarcoma cells; [9]): 237 | L243 (MHC Class II surface staining) ([3]; HELA, single agent): 86.0 | W6/32 (MHC Class I surface staining) ([3]; HELA, single agent): 464.8 | MHC Class II, geometric mean of surface staining (L2443) ([3]; HeLa, three days, IFN-β 5000 Units/ml, IFN-γ 100 ng/ml, PU-H71 0.3 mg/ml): 214 | MHC Class I, geometric mean of surface staining (W6/32) ([3]; HeLa, three days, IFN-β 5000 Units/ml, IFN-γ 100 ng/ml, PU-H71 0.3): 637 | L243 (MHC Class II surface staining) ([4]; single agent): 339.3 | W6/32 (MHC Class I surface staining) ([4]; single agent): 117 | MHC Class I, geometric mean of surface staining (W6/32) [4, 9]: 117 | MHC Class II, geometric mean of surface staining (L2443) [4, 9]: 142 | MHC Class II, geometric mean of surface staining (L2443) ([5]; PU-H71 0.3 mg/ml): 118 | MHC Class I, geometric mean of surface staining (W6/32) ([5]; PU-H71 0.3): 277 | L243 (MHC Class II surface staining) ([6]; single agent): 1.1 | W6/32 (MHC Class I surface staining) ([6]; single agent): 86.5 | MHC Class I, geometric mean of surface staining (W6/32) ([6]; three days, IFN-β 5000 Units/ml, IFN-γ 100 ng/ml, PU-H71 0.3 μg/ml): 87 | MHC Class II, geometric mean of surface staining (L2443) [6, 9]: 1 | MHC Class II, geometric mean of surface staining (L2443) ([7]; Giloma-118, three days, IFN-β 5000 Units/ml, IFN-γ 100 ng/ml, PU-H71 0.3 mg/ml): 40 | MHC Class I, geometric mean of surface staining (W6/32) ([7]; Giloma-118, three days, IFN-β 5000 Units/ml, IFN-γ 100 ng/ml, PU-H71 0.3): 137 | L243 (MHC Class II surface staining) ([7]; U118, single agent): 65.3 | W6/32 (MHC Class I surface staining) ([7]; U118, single agent): 250.5 | Class I MHC expression over the tumor panel (tumor cell lines): induce significant increases | Class II MHC expression over the tumor panel (tumor cell lines): induced significant Class II
